The assay addresses platelet receptor GPIIbIIIa (αIIbβ3) on human platelets, P08514;P05106. The assay can be described thus: platelet adhesion to immobilized protein (phosphatase assay). As to conditions: read off a plot.

On to “recombinant PadA-F2 region fragment (from UniProt A8AZP4) R416A; G417A; T418A”, for which the response (Absorbance (405 nm)) stood at 0.21 (parent: est. 0.48) and 0.8 (parent: est. 0.88).
As for “recombinant PadA-F2 region fragment (from UniProt A8AZP4) N214A; G215A; R216A”, the response (Absorbance (405 nm)) is, setting by setting: (parent: est. 0.48) 0.28; (parent: est. 0.88) 0.72.
On the same counts, the results for “recombinant PadA-F2 region fragment (from UniProt A8AZP4) G486A; D487A” are 0.27 and 0.87.
Regarding “recombinant PadA-F2 region fragment (from UniProt A8AZP4) N214A; G215A; R216A; R416A; G417A; T418A; G486A; D487A”, the response (Absorbance (405 nm)) runs as follows: (TRAP-activated gel-filtered platelets, 2 × 10^7 per well, 10 μg protein per well, 37°C, 45 min, static, parent: est. 0.88) 0.2; (non-activated gel-filtered platelets, 2 × 10^7 per well, 10 μg protein per well, 37°C, 45 min, static, parent: est. 0.48) 0.49.
Consider “recombinant PadA-F2 region fragment (from UniProt A8AZP4) R416A; G417A; T418A; G486A; D487A”, for which the response (Absorbance (405 nm)) came to 0.71 (parent: est. 0.48) and 0.44 (parent: est. 0.88).

For the origin of these results see paper PMC5574023.
